From patent US20250002528A1 (OXFORD UNIVERSITY INNOVATION, published 2025)

Assays:
SpyTag-MBP = target: T1, SpyTag-MBP; experiment: ITC, monomeric SpySwitch, pH 7.5, 5 °C; ITC, pH 7.5, 5 C
T1 construct: Fusion of SpyTag and MBP

SpyTag003-MBP = target: T2, SpyTag003-MBP; experiment: as above
T2 construct: Fusion of SpyTag003 and MBP

B1: SpySwitch (designed binder)
chain: MSYYHHHHHHGSGGSGAMVTTLSGLSGEQGPSGDMTTEEDSATHIHFHKHDEDGRELAGATMELRDCSGKTISTWITDGHVKDFYLYPGKYTFVATAAPDGHHVATPIEFTINEDGQVTVDGEATEGDPHTGSSGS
notes: also called SpySwitch resin; monomeric SpySwitch
In the case of B1, the Kd (SpyTag-MBP) is reported as 1100 nM, the stoichiometry (SpyTag-MBP) is reported as 1 and the Kd (SpyTag003-MBP) is reported as 1500 nM. The stoichiometry (SpyTag003-MBP) was 1.
